The test system of test [1] is minimal promoter linked to multiple copies of CRE. Kind of test: CRE-Luc reporter co-transfection assay with the CREAP gene family. The format is cell-based. Conditions: cotransfection, relative to empty pCMV-SPORT6 vector. From the text: (§1) The entire amino acid sequence for CREAP1 was used in a BLASTP search of a public NCBI database. Initially two public domain cDNAs (XM—117201 and FLJ00364) were identified that have significant homology to the CREAP1 coding region. The nucleotide sequence of XM—117201 was used in a BLASTN search (Altschul S. F. et al., Nucleic Acids Res. 25:3389-3402 (1997)) of a proprietary cDNA library EST database and 4 clones were identified that represent XM—117201 public sequence. All 4 clones were functionally tested upon co-transfection with the CRE-Luc and IL-8p-Luc reporters initially found to be induced by CREAP using methods similar to those disclosed above. Briefly, trypsinized HeLa cells are resuspended in complete growth media at 6×10^4 cells/ml and distributed into white 96-well plates (Costar) in the volume of 100 μl per well. Cells are left overnight in a tissue culture incubator at 37° C. and 5% CO2. pGL3B-IL-8p-Luc reporter plasmid or CRE-Luc reporter (BD Biosciences) as well as tested cDNAs are resuspended in OptiMEM I low serum media (GIBCO BRL) at 25 ng/ml. The reporter plasmids and cDNAs are then distributed into 96-well clean PCR plates (ABGene) at 4 μl/well and 3 μl/well respectively. Mixture containing Fugene 6 reagent (Roche Applied Bioscience) at 1.5 μl per transfection and pRL-SV40 (Promega) plasmid 20 ng per transfection is added in the volume of 10 μl per well of the 96-well PCR plate containing prediluted cDNAs. […]
(§2) The activity of firefly and Renilla luciferase is measured using the DualGlo Luciferase Assay System (Promega) following the protocol supplied by the manufacturer. Briefly, 115 μl of freshly reconstituted luciferase reagent is added to each well of the 96-well tissue culture plates with a Multidrop 384 and, after 15 minutes incubation, luminescence is read on a LUMINOSKAN Ascent Luminometer (Thermo Labsystems) with a 400 msec integration time. Subsequently, 115 μl of Stop-and-Glo reagent is added to each well of the 96-well tissue culture and, after 15 minutes incubation, luminescence is read on a LUMINOSKAN Ascent Luminometer with a 200 msec integration time. The activity of each tested cDNA is measured as a ratio of the corresponding firefly and Renilla luciferase activities.
To investigate this, the ability of CREAP2 and CREAP3 to activate gene expression driven by the IL-8 promoter and a CRE-dependent promoter was tested in co-transfection assays as disclosed above. Briefly, the levels of expression of a luciferase reporter driven by either the IL-8 promoter or a minimal promoter linked to 4 copies of CRE were determined after cotransfection with either an empty pCMV-SPORT6 expression vector or with the same vector carrying a cDNA for CREAP1, CREAP2 or CREAP3. […]

In another test the test system is Interleukin-8 promoter. The test is described as follows: IL-8 promoter luciferase reporter co-transfection assay with the CREAP gene family. The format is cell-based, human. The note with it: cotransfection, relative to empty pCMV-SPORT6 vector.
Text: as §1, with “respectively.” for “respectively. Mixture containing Fugene 6 reagent (Roche Applied Bioscience) at 1.5 μl per transfection and pRL-SV40 (Promega) plasmid 20 ng per transfection is added in the volume of 10 μl per well of the 96-well PCR plate containing prediluted cDNAs.”
as §2, with “activities. […]” for “activities.”
In general terms: In a reporter assay the amount or activity of a reporter protein is the signal.

Test [2] deals with CRE-like element of IL-8 promoter (pCREL-Luc). Kind of test: pCREL-Luc reporter (concatamerized CRE-like site) assay. Conditions: minimal promoter carrying concatamerized CRE-like site; data not shown. It is filed as cell-based. The source says:
The pIL-8Luc reporter was constructed by insertion of the −1491 to +43 region of the human IL-8 gene into pGL3Basic vector (Promega, Inc). PCR was used to generate a wild type minimal IL-8 promoter as well as point mutants. Mutations in AP-1, C/EBP, NF-κB were as described by Wu et al. (Wu et al. J. Biol. Chem., 272:2396-2403 (1997)). The sequence of a putative CRE-like site TGACATAA was mutated to TCGATCAA. Promoter constructs carrying 6 concatamerised copies of CRE-like response element (pCREL-Luc) or 5 copies of CRE-like element TGACACAA found in human PEPCK and CAPL promoters (pCREL2-Luc) were prepared by ligating PCR amplified sequences into pTAL-Luc (BD Biosciences). All techniques were performed using conventional methods.
In order to determine if the “CRE-like element” was directly responsive to CREAP1 or MAP3K11, the ability of both genes to activate a minimal promoter carrying concatamerized CRE-like site (pCREL-Luc) was examined. In addition, we studied the effect of PMA known inducer of AP-1.

This is an account of results in patent publication US20070036810A1, “Cyclic amp response element activator proteins and uses related thereto” (priority 2003, published 2007).

B1: CREAP1: human CRE activating protein 1, 650 amino acids, SEQ ID NO 2; expressed from pCMVSPORT-CREAP1 (protein)
chain: MATSNNPRKFSEKIALHNQKQAEETAAFEEVMKDLSLTRAARLQLQKSQYLQLGPSRGQYYGGSLPNVNQIGSGTMDLPFQPSGFLGEALAAAPVSLTPFQSSGLDTSRTTRHHGLVDRVYRERGRLGSPHRRPLSVDKHGRQADSCPYGTMYLSPPADTSWRRTNSDSALHQSTMTPTQPESFSSGSQDVHQKRVLLLTVPGMEETTSEADKNLSKQAWDTKKTGSRPKSCEVPGINIFPSADQENTTALIPATHNTGGSLPDLTNIHFPSPLPTPLDPEEPTFPALSSSSSTGNLAANLTHLGIGGAGQGMSTPGSSPQHRPAGVSPLSLSTEARRQQASPTLSPLSPITQAVAMDALSLEQQLPYAFFTQAGSQQPPPQPQPPPPPPPASQQPPPPPPPQAPVRLPPGGPLLPSASLTRGPQPPPLAVTVPSSLPQSPPENPGQPSMGIDIASAPALQQYRTSAGSPANQSPTSPVSNQGFSPGSSPQHTSTLGSVFGDAYYEQQMAARQANALSHQLEQFNMMENAISSSSLYSPGSTLNYSQAAMMGLTGSHGSLPDSQQLGYASHSGIPNIILTVTGESPPSLSKELTSSLAGVGDVSFDSDSQFPLDELKIDPLTLDGLHMLNDPDMVLADPATEDTFRMDRL
modifications: human
Turning to B1, in test [1], the “CRE: level of expression of luciferase relative to empty vector” value is given as 28.6. In the test on Interleukin-8 promoter, the “IL-8: level of expression of luciferase relative to empty vector” value is recorded as 175.8571. Further, the “activation of pCREL-Luc” value in test [2] is listed as “strongly activated”.
